How the values were obtained:
[1] = test system: microorganisms belonging to the genera of Staphylococcus and Enterococcus; conditions: Journal of Dairy Science, Vol. 67, page 606, 1984; cited from earlier work
[2] = test system: Staphylococcus aureus (JCM-2151); experiment: Viability assay (survival rate) in cow's milk medium; format: cell-based
Method: The colonies grown on the culture medium were scraped by a platinum loop and cultivated in 1% peptone (by Difco Company) culture medium for several hours at 37° C., and the resultant microbial culture at logarithmic phase was used as the preculture in a serial concentration of 3×10^8 /ml.
A quantity of the resultant solutions of the samples were selectively mixed with a quantity of the basal medium, thereby test media for the respective tests were prepared in the combinations and eventual concentrations as specified in the respective tests.
Utilizing the samples (5), (7), (8), (9), (10), (14), (15), (17), (18) and (19), test media were prepared in the same manner as in the preparation of the test media containing sample (3) and the like, except that the aqueous solution (in the cases of samples (5) and (7), aqueous suspensions) were not dealt with sterilization filters.
To 2 ml aliquots of test media prepared in (3-1) (supra), […] aliquots of the preculture of Staphylococcus aureus prepared in (1) (2. Method, supra) were added, then incubated at 37° C. for 1 hour, 200 μl aliquots of the resultant cultures were taken out and diluted with 1% peptone solution in a series of 10^n respectively, 110 μl aliquots of the resultant dilution series were spread onto plates of standard agar culture medium, and after incubation at 37° C. for 24 hours the number of colonies grown on the plates were counted (Test. Colony Count).
Control coloney counts 1 were determined in the same manner as in the determination of the test coloney counts, except that […] aliquots of the preculture of Staphylococcus aureus prepared in (1) (2. Method, supra) were added to 2 ml aliquots of the respective control media 1 prepared in (3-2) (supra). Furthermore, control coloney counts 2 were determined in the same manner as in the determination of the test coloney counts, except that […] aliquots of the preculture of Staphylococcus aureus prepared in (1) (supra) were added to 2 ml aliquots of the respective control media 1 prepared in (3-2) (supra).
Survival rate 1=(Test Colony Count/Control Colony Count 1)×100
Survival rate 2=(Control Colony Count 2/Control Colony Count 1)×100
(Note: In the tables shown hereinafter, vulues of survival rate 2 are indicated in the row where the concentration of antimicrobial peptide or lactoferrin hydrolysate is 0.)

B1: lactoferrin: Bovine lactoferrin on the market (by Sigma Company) (protein)
chain: APRKNVRWCTISQPEWFKCRRWQWRMKKLGAPSITCVRRAFALECIRAIAEKKADAVTLDGGMVFEAGRDPYKLRPVAAEIYGTKESPQTHYYAVAVVKKGSNFQLDQLQGRKSCHTGLGRSAGWIIPMGILRPYLSWTESLEPLQGAVAKFFSASCVPCIDRQAYPNLCQLCKGEGENQCACSSREPYFGYSGAFKCLQDGAGDVAFVKETTVFENLPEKADRDQYELLCLNNSRAPVDAFKECHLAQVPSHAVVARSVDGKEDLIWKLLSKAQEKFGKNKSRSFQLFGSPPGQRDLLFKDSALGFLRIPSKVDSALYLGSRYLTTLKNLRETAEEVKARYTRVVWCAVGPEEQKKCQQWSQQSGQNVTCATASTTDDCIVLVLKGEADALNLDGGYIYTAGKCGLVPVLAENRKSSKHSSLDCVLRPTEGYLAVAVVKKANEGLTWNSLKDKKSCHTAVDRTAGWNIPMGLIVNQTGSCAFDEFFSQSCAPGADPKSRLCALCAGDDQGLDKCVPNSKEKYYGYTGAFRCLAEDVGDVAFVKNDTVWENTNGESTADWAKNLNREDFRLLCLDGTRKPVTEAQSCHLAVAPNHAVVSRSDRAAHVKQVLLHQQALFGKNGKNCPDKFCLFKSETKNLLFNDNTECLAKLGGRPTYEEYLGTEYVTAIANLKKCSTSPLLEACAFLTR
concentration in which lactoferrin exhibits antimicrobial activity [1]: 0.5 to 80 mg/mL
survival rate ([2]; Test 1: peptide 0, lactoferrin 0.1 mg/ml): 150
survival rate ([2]; Test 1: peptide 0, lactoferrin 1 mg/ml): 150
survival rate ([2]; Test 1: peptide 0, lactoferrin 10 mg/ml): 104
survival rate ([2]; Test 20: peptide 0, 1-monolauroyl-rac-glycerol 0, bovine lactoferrin 1 mg/ml): 105%
antimicrobial activity of the compound added without antimicrobial peptide or lactoferrin hydrolysate (in words) ([2]; compound alone): no antimicrobial activity was observed
effect of the coexisting compound on the antimicrobial activity of the antimicrobial peptide (in words) ([2]; with antimicrobial peptide Seq. ID No. 26): augments the antimicrobial activity of the peptide
effect of the coexisting compound on the antimicrobial activity of the antimicrobial peptide (in words) ([2]; with antimicrobial peptide Seq. ID No. 27): further augments the antimicrobial activity of the antimicrobial peptides

Reference: patent publication US5656591A, “Antimicrobial agents and method for treating products therewith” (Morinaga Milk Industry Co., Ltd., priority 1992, dated 1997)
